Measured values from patent US20180258161A1 (Chugai, published 2018).
Where a chain is given by its changes, count along the chain named. Each block holds one binder with its values, some of them ahead of it.

Assays:
recombinant human IgA [1] = target: T1, recombinant human IgA (human); test: Biacore T200, pH 5.8, 3 µM Ca, 1:1 binding model
T1 construct: Antigen; H(WT)-IgA1 with L(WT); The text calls human IgA a dimeric antigen; also called hIgA
Description: (§1) Using Biacore T200 (GE Healthcare), the obtained antibodies were assessed for their binding activity to human IgA (dissociation constant KD (M)). The measurement was carried out using as a running buffer 0.05% tween20, 20 mmol/1 ACES, 150 mmol/l NaCl (pH 7.4 or pH 5.8) containing 3 μM or 1.2 mM CaCl₂, or 0.05% tween20, 20 mmol/1 ACES, 150 mmol/l NaCl (pH 8.0) containing 0.1 μM or 10 mM CaCl₂.
(§2) After an adequate amount of recombinant Protein A/G (Thermo Scientific) was immobilized onto the Sensor chip CM5 (GE Healthcare) by an amino coupling method, antibodies were allowed to bind onto the sensor chip. An appropriate concentration of hIgA (described in (20-1)) was injected as an analyte to interact with antibodies on the sensor chip. Then, the sensor chip was regenerated by injecting 10 mmol/l glycine-HCl, pH 1.5. The measurement was carried out at 37° C. From the assay result, the dissociation constant KD (M) was calculated based on curve-fitting analysis and equilibrium constant analysis using Biacore T200 Evaluation Software (GE Healthcare).

recombinant human IgA [2] = target: T1, recombinant human IgA; test: Biacore T200, pH 7.4, 3 µM Ca, 1:1 binding model
Description: as §1, §2

recombinant human IgA [3] = target: T1, recombinant human IgA; test: Biacore T200, pH 8.0, 10 mM Ca, 1:1 binding model
Description: as §1, §2

recombinant human IgA [4] = target: T1, recombinant human IgA; test: Biacore T200, pH 5.8, 1.2 mM Ca, 1:1 binding model
Description: as §1, §2

recombinant human IgA [5] = target: T1, recombinant human IgA; test: Biacore T200, pH 7.4, 1.2 mM Ca, 1:1 binding model
Description: as §1, §2

recombinant human IgA [6] = target: T1, recombinant human IgA; test: Biacore T200, pH 8.0, 0.1 µM Ca, 1:1 binding model
Description: as §1, §2

recombinant human IgA [7] = target: T1, recombinant human IgA; test: Biacore T200, pH 5.8, 3 µM Ca, steady state affinity
Description: as §1, §2

recombinant human IgA [8] = target: T1, recombinant human IgA; test: Biacore T200, pH 7.4, 3 µM Ca, steady state affinity
Description: as §1, §2

recombinant human IgA [9] = target: T1, recombinant human IgA; test: Biacore T200, pH 5.8, 1.2 mM Ca, steady state affinity
Description: as §1, §2

recombinant human IgA [10] = target: T1, recombinant human IgA; test: Biacore T200, pH 7.4, 1.2 mM Ca, steady state affinity
Description: as §1, §2

human interleukin 6 = target: T2, human interleukin 6 (human, UniProt P05231 30-212, limits assumed); test: Biacore T100, antibody captured by Protein A/G, pH 7.4, 37 C
T2 construct: also called hIL6; IL-6
Description: Using Biacore T100 (GE Healthcare), the prepared antibodies were assessed for their binding activity (dissociation constant KD (M)) to human interleukin 6 (hIL6) at pH 7.4. The measurement was carried out using as a running buffer 0.05% Tween20, 10 mmol/1 ACES, 150 mmol/l NaCl (pH 7.4) containing 3 μM or 1.2 mM CaCl₂.
After an adequate amount of recombinant Protein A/G (Thermo Scientific) was immobilized onto Sensor chip CM5 (GE Healthcare) by an amino coupling method, antibodies were allowed to bind thereto. An appropriate concentration of hIL6 (human interleukin 6; Kamakura Techno-Science, Inc.) was injected as an analyte to interact with antibodies on the sensor chip. Then, the sensor chip was regenerated by injecting 10 mmol/1 glycine-HCl (pH 1.5). The measurement was carried out at 37° C.

[11] = target: T3, soluble human IL-6 receptor (human, UniProt P08887 20-357); test: Biacore T100
T3 construct: also called hsIL-6R; hIL6R
T3 sequence: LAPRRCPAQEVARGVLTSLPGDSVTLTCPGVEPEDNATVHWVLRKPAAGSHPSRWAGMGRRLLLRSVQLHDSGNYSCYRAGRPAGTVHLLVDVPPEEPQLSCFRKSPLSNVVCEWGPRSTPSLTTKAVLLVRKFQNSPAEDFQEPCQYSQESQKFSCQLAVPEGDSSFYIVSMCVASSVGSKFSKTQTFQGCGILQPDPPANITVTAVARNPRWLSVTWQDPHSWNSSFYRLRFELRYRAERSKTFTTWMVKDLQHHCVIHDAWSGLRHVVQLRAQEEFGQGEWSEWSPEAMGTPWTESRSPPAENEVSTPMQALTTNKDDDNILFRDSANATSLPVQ

[12] = target: T3, soluble human IL-6 receptor; test: Biacore T100, antibody captured by Protein A, 37 C
[13] = target: T4, recombinant human glypican 3 (human, UniProt P51654 25-563, biotin-labeled in the ELISA); test: ELISA on biotin-labeled GPC3
T4 construct: Six histidine residues are linked; also called GPC3; human GPC3
Description: The plate was incubated at 37° C. for 30 minutes. […] The plate was incubated for one hour.

T2 sequence (P05231 30-212 limits assumed): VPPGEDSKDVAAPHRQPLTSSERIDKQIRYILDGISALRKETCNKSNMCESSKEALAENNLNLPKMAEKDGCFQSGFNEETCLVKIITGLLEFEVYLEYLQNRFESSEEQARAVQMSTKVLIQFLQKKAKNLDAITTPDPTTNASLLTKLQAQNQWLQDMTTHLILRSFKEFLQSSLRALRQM
T1 sequence (heavy, as listed by the source): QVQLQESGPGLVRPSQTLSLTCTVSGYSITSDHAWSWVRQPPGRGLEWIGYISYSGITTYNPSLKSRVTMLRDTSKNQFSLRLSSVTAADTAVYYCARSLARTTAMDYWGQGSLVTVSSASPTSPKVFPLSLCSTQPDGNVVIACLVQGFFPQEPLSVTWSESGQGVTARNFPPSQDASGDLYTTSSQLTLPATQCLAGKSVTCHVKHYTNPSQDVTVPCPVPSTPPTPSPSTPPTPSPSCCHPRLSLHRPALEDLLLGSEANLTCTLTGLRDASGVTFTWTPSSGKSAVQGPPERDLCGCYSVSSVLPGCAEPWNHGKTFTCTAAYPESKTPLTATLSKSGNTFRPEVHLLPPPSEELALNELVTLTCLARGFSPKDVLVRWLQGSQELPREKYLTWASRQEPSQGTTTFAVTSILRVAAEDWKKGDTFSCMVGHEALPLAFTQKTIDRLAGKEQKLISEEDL

B1: GA1-IgG1 (antibody, V domains shown)
VH: EVQLVQSGAEVKKPGSSVKVSCKASGGTFSSYAISWVRQAPGQGLEWMGGIIPIFGTANYAQKFQGRVTITADESTSTAYMELSSLRSEDTAVYYCARVAPGNWGSPYFDYWGQGTLVTVSS
VL: DIQMTQSPSSLSASVGDRVTITCRASQSIEDDLAWYQQKPGKAPKLLIYEASSLQSGVPSRFSGSGSGTDFTLTISSLQPEDFATYYCQQRDSSPLTFGQGTKVEIKR
notes: also called GAI-IgG1
Kd (recombinant human IgA [1]): 0.15 µM
koff (recombinant human IgA [1]): 0.11 s⁻¹
kon (recombinant human IgA [1]): 710000 M⁻¹ s⁻¹
Kd (recombinant human IgA [2]): 0.19 µM
koff (recombinant human IgA [2]): 0.12 s⁻¹
kon (recombinant human IgA [2]): 640000 M⁻¹ s⁻¹
Kd (recombinant human IgA [3]): 0.22 µM
koff (recombinant human IgA [3]): 0.24 s⁻¹
kon (recombinant human IgA [3]): 1.1e+06 M⁻¹ s⁻¹
Kd (recombinant human IgA [4]): 0.14 µM
koff (recombinant human IgA [4]): 0.099 s⁻¹
kon (recombinant human IgA [4]): 680000 M⁻¹ s⁻¹
Kd (recombinant human IgA [5]): 0.15 µM
koff (recombinant human IgA [5]): 0.084 s⁻¹
kon (recombinant human IgA [5]): 570000 M⁻¹ s⁻¹
Kd (recombinant human IgA [6]): 0.1 µM
koff (recombinant human IgA [6]): 0.12 s⁻¹
kon (recombinant human IgA [6]): 1.2e+06 M⁻¹ s⁻¹

B2: GA4-IgG1 (antibody, V domains shown)
VH: QVQLQQSGPGLVKPSETLSLTCTILGGSISGHYWSWIRQTPGKGLEWIGYIDYSGSTHYNPSLKSRVTMSVDTSKNQFSLKLSSVTAADTAMYYCARDNWDFGSGSYYNWFDPWGQGTLVTVSS
VL: B1 VL with E50H, R91S, S93N
Kd (recombinant human IgA [7]): 1.5 µM
Kd (recombinant human IgA [8]): 0.89 µM
Kd (recombinant human IgA [9]): 1.1 µM
Kd (recombinant human IgA [10]): 0.42 µM

B3: GA3-IgG1 (antibody, V domains shown)
VH: QVQLVQSGAEVKKPGSSVKVSCKASGGTFSSYAISWVRQAPGQGLEWMGGIIPIFGTANYAQKFQGRVTITADESTSTAYMELSSLRSEDTAVYYCARGNGDYLEYFQHWGQGTLVTVSS
VL: B1 VL with E30S, S53N
Kd (recombinant human IgA [4]): 0.081 µM
koff (recombinant human IgA [4]): 0.035 s⁻¹
kon (recombinant human IgA [4]): 440000 M⁻¹ s⁻¹
Kd (recombinant human IgA [5]): 0.079 µM
koff (recombinant human IgA [5]): 0.033 s⁻¹
kon (recombinant human IgA [5]): 430000 M⁻¹ s⁻¹
Kd (recombinant human IgA [7]): 1.1 µM

B4: GA2-IgG1 (antibody, V domains shown)
VH: QVQLVQSGAEVKKPGSSVKVSCKASGGTFSSYAISWVRQAPGQGLEWMGGIIPIFGTANYAQKFQGRVTITADESTSTAYMELSSLRSEDTAVYYCARPRWETAISSDAFDIWGQGTMVTVSS
VL: B1 VL with E30S, A34N, S53N, R91H, D92S
koff (recombinant human IgA [5]): 0.016 s⁻¹

B5: 6LC4-1#15-IgG1 (antibody, V domains shown)
VH: QVQLVQSGAEVKKPGATVKISCKVSGYTFTDYYMHWVQQAPGKGLEWMGLVDPEDGETIYAEKFQGRVTITADTSTDTAYMELSSLRSEDTAVYYCATAGSSSNFDYWGQGTLVTVSS
VL: QSALTQPRSVSGSPGQSVTISCTGTSSDVGGYNYVSWYQQHPGKAPKLMIYDVSKRPSGVPDRFSGSKSGNTASLTISGLQAEDEADYYCCSYAGSYTWVFGGGTKLTVLG
binding result (human interleukin 6): binds

B6: 6RL#9-IgG1 (antibody, V domains shown)
VH: QVQLVQSGAEVKKPGASVKVSCKASGYTFTSYYMHWVRQAPGQGLEWMGIINPSGGSTSYAQKFQGRVTMTRDTSTSTVYMELSSLRSEDTAVYYCARDDPGGGEYYFDYWGQGTLVTVSS
VL: QSVLTQPPSVSGAPGQRVTISCTGSRSNMGAGYDVHWYQLLPGAAPKLLISHNTHRPSGVPDRFSGSKSGASASLAITGLQAEDEADYYCQSHDSSLSAVVFGGGTKLTVLS
Ca … (KD at 3 µM CaCl2 against KD at 2 mM CaCl2) [11]: ≥ 120 fold

B8: FH4-IgG1 (antibody, V domains shown)
VH: QVQLVQSGAEVKKPGSSVKVSCKASGGTFSSYAISWVRQAPGQGLEWMGGIIPIFGTANYAQKFQGRVTITADESTSTAYMELSSLRSEDTAVYYCARERDYYDSSGYYDAFDIWGQGTMVTVSS
VL: ETTVTQSPSFLSASVGDRVTITCITTTDIDDDMNWFQQEPGKAPKLLISEGNILRPGVPSRFSSSGYGTDFTLTISKLQPEDFATYYCLQSDNLPFTFGQGTKLEIKR
Ca … (KD at 3 µM CaCl2 against KD at 2 mM CaCl2) [11]: ≥ 60 fold

Further lines, results first:

binding result (human interleukin 6): binds
B7: 6LC4-2#16-IgG1 (antibody, V domains shown)
VH: QVQLQQSGPGLVKPSQTLSLTCAISGDSVSSNSAAWNWIRQSPSRGLEWLGRTYYRSKWYNDYAVSVKSRITINPDTSKNQFSLQLNSVTPEDTAVYYCARDLIAAAGGDFDYWGQGTLVTVSS
VL: QSVLTQPPSVSGAPGQRVTISCTGSRSNIGAGFDVHWYRQLPGTAPKLLIYGISNRPSGVPDRFSGSKSDTSVSLAITGLQAEDEADYYCQSYDSSLSGYVFGTGTKVTVLG

binding result (human interleukin 6): binds
B9: 6KC4-1#85-IgG1 (antibody, V domains shown)
VH: EVQLVESGGGLVQPGGSLRLSCAASGFTFSSYEMNWVRQAPGKGLEWVSYISSSGSTIYYADSVKGRFTISRDNAKNSLYLQMNSLRAEDTAVYYCARDAPYYYDSSGYTDAFDIWGQGTMVTVSS
VL: EIVLTQSPATLSLSPGERATLSCRASQSVSSYLAWYQQKPGQAPRLLIFDASNRAAGIPARFSGSGSGTDFTLTISSLEPEDFAVYYCQQFDKWVTFGGGTTVEIRR

binding result [12]: binds
B10: 6RK#12-IgG1 (antibody, V domains shown)
VH: QVQLVQSGAEVKKPGSSVKVSCKASGGTFSSYAISWVRQAPGQGLEWMGGIIPIFGTANYAQKFQGRVTITADESTSTAYMELSSLRSEDTAVYYCARDLGDIVVVPAAPDMPKGYYYYGMDVWGQGTMVTVSS
VL: EIVMTQSPATLSVSPGERATLSCRASQSINDNLAWYQQKPGQAPRLLIYGASTRATGIPARFSGSGSGTEFTLTISSLQSEDFAVYFCQQYQYWPPITFGQGTRLDIKR

binding result [13]: binds
B11: GC-IgG1 (antibody, V domains shown)
VH: QVQLVQSGAEVKKPGASVKVSCKASGYTFTDYEMHWVRQAPGQGLEWMGALDPKTGDTAYSQKFKGRVTLTADKSTSTAYMELSSLTSEDTAVYYCTRFYSYTYWGQGTLVTVSS
VL: DVVMTQSPLSLPVTPGEPASISCRSSQSLVHSNRNTYLHWYLQKPGQSPQLLIYKVSNRFSGVPDRFSGSGSGTDFTLKISRVEAEDVGVYYCSQNTHVPPTFGQGTKLEIKR
